Values quoted from earlier work as cited in paper PMC3585250.

Target: integrin αvβ3 (Homo sapiens) (UniProt P06756)
UniProt P06756, sequence (P06756 31-1048, chain 1 of 2): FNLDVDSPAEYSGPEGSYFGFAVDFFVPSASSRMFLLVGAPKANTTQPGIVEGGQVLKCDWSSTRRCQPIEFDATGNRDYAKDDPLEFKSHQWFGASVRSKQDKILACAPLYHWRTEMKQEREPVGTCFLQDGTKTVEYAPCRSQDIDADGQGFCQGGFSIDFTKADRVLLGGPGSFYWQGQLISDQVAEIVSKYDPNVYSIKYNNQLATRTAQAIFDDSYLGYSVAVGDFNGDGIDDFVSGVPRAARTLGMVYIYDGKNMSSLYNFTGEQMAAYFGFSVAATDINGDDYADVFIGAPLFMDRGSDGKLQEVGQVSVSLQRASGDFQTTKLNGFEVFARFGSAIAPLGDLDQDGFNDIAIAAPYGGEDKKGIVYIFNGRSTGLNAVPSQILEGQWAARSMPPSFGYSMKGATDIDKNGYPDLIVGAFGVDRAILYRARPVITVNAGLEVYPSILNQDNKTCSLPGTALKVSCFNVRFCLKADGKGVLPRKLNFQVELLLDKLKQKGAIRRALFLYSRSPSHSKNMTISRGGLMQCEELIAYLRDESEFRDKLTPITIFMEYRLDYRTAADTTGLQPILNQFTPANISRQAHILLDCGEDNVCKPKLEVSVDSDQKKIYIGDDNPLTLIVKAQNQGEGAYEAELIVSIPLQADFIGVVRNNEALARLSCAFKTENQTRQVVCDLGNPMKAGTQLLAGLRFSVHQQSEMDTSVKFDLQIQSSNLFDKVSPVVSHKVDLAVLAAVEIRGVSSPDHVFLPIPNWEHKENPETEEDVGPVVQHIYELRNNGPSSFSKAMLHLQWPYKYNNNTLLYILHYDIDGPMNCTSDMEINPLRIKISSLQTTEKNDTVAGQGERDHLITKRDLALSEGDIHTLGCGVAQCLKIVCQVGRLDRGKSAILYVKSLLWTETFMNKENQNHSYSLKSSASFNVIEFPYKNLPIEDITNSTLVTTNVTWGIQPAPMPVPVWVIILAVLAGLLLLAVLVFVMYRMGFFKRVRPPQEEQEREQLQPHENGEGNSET
UniProt P06756, sequence (P05106 27-788, chain 2 of 2, further chain): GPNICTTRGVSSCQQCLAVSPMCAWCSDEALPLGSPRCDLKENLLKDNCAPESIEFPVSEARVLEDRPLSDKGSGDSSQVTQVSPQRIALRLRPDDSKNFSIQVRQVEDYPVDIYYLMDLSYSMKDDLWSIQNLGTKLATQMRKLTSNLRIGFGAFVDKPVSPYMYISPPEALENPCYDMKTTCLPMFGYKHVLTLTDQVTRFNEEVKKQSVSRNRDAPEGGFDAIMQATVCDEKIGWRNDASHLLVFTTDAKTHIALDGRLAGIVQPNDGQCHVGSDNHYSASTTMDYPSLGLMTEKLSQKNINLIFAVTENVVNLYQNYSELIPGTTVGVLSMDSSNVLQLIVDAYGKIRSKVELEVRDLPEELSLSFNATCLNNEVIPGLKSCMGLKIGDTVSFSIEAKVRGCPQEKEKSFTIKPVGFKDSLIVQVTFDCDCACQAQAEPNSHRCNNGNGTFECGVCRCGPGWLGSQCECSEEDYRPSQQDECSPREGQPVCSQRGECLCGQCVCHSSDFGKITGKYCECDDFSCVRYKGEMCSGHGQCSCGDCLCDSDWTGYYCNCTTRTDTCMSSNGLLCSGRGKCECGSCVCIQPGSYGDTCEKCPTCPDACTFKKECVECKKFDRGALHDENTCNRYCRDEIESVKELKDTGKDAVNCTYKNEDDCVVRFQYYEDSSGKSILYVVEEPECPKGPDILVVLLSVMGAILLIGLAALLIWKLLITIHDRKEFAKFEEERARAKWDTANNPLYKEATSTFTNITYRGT

**Q.** With FGF1 (from UniProt P05230) as the substance, how does the Kd read?
**A.** Its Kd is 1 µM.
